Values quoted from earlier work in publication PMC6753016.
Read-outs that look alike come from different tables or passages of the source. Blank lines part the entries; values can stand above or below the substance they belong to.

Assays:
[1] = molecular target: Factor XIIa (Homo sapiens) (UniProt P00748)
[2] = molecular target: Trypsin (Bos taurus) (UniProt P00760)
[3] = molecular target: Cathepsin L (UniProt P07711)
Target sequence in this assay (P07711 114-288, chain 1 of 2): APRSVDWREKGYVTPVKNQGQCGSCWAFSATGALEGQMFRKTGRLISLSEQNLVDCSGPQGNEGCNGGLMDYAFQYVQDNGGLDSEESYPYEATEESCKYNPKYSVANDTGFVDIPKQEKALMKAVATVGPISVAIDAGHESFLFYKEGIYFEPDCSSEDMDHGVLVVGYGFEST
Target sequence in this assay (P07711 292-333, chain 2 of 2): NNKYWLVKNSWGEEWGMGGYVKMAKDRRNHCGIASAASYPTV

[4] = molecular target: Cathepsin H (UniProt P09668)
Target sequence in this assay (P09668 116-335): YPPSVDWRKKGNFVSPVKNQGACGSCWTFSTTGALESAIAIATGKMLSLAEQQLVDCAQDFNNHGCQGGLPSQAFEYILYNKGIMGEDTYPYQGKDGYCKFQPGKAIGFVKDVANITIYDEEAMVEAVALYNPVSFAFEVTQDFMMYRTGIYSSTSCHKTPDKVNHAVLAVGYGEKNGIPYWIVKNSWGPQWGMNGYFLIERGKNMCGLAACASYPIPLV

[5] = molecular target: Cathepsin H (UniProt P09668); remark: listed apart in the source
Target sequence in this assay (P09668 whole entry, looked up): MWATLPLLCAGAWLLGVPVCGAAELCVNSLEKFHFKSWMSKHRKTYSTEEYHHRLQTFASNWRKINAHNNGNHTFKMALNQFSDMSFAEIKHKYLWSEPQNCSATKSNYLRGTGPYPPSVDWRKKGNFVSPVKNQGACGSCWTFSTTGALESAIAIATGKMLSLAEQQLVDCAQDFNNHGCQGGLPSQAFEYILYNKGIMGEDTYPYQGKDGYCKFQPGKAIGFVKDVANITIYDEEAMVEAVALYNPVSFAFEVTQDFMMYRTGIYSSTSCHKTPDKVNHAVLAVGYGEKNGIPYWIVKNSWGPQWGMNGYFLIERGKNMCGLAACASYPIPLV

[6] = molecular target: Cathepsin L (UniProt P07711); remark: listed apart in the source
Target sequence in this assay (P07711 292-333): as the sequence (P07711 292-333, chain 2 of 2) above

[7] = molecular target: Porcine elastase (Sus scrofa) (UniProt P00772)
Sequence of Porcine elastase (Sus scrofa) (P00772 27-266): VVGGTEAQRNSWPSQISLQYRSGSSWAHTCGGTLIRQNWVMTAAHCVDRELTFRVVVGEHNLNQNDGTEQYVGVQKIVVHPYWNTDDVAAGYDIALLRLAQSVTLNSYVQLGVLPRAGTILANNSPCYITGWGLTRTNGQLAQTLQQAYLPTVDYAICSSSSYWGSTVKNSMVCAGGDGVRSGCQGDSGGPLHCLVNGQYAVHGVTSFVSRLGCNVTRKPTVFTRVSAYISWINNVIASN

[8] = molecular target: β-Trypsin (Bos taurus) (UniProt P00760)
Sequence of β-Trypsin (Bos taurus) (P00760 149-246): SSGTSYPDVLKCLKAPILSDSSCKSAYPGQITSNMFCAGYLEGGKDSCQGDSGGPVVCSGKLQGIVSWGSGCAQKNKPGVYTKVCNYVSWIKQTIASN

[9] = molecular target: Cathepsin B (UniProt P07858)
[10] = molecular target: Cathepsin L (UniProt P07711); remark: listed apart in the source
Target sequence in this assay (P07711 114-288, chain 1 of 2): as the sequence (P07711 114-288, chain 1 of 2) above
Target sequence in this assay (P07711 292-333, chain 2 of 2): as the sequence (P07711 292-333, chain 2 of 2) above

[11] = molecular target: Cathepsin H (UniProt P09668); remark: listed apart in the source
Target sequence in this assay (P09668 116-335): as the sequence (P09668 116-335) above

[12] = molecular target: Cathepsin H (UniProt P09668); remark: listed apart in the source
Target sequence in this assay (P09668 whole entry, looked up): as the sequence (P09668 whole entry, looked up) above

[13] = molecular target: Cathepsin L (UniProt P07711); remark: listed apart in the source
Target sequence in this assay (P07711 292-333): as the sequence (P07711 292-333, chain 2 of 2) above

[14] = molecular target: Cathepsin B (UniProt P07858); remark: listed apart in the source
[15] = molecular target: Kallikrein 14 (Homo sapiens) (UniProt Q9P0G3)
Sequence of Kallikrein 14 (Homo sapiens) (Q9P0G3 41-267): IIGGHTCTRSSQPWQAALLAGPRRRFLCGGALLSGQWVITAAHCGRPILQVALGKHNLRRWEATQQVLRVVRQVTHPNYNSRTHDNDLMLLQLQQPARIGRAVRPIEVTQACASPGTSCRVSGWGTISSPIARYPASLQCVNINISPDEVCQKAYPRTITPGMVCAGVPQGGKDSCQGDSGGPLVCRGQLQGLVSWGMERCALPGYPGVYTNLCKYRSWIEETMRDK

[16] = molecular target: Trypsin (Bos taurus) (UniProt P00760); remark: listed apart in the source
[17] = molecular target: Kallikrein 5 (Homo sapiens) (UniProt Q9Y337)
Sequence of Kallikrein 5 (Homo sapiens) (Q9Y337 23-293): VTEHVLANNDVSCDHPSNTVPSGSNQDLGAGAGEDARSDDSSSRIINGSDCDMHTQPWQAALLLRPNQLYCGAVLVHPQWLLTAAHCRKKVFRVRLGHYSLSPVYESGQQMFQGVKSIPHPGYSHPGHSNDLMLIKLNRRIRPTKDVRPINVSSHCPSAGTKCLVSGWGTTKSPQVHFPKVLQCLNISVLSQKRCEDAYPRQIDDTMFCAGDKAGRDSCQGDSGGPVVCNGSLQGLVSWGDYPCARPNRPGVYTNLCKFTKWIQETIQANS

[18] = molecular target: Matriptase (Homo sapiens) (UniProt Q9Y5Y6)
Sequence of Matriptase (Homo sapiens) (Q9Y5Y6 whole entry): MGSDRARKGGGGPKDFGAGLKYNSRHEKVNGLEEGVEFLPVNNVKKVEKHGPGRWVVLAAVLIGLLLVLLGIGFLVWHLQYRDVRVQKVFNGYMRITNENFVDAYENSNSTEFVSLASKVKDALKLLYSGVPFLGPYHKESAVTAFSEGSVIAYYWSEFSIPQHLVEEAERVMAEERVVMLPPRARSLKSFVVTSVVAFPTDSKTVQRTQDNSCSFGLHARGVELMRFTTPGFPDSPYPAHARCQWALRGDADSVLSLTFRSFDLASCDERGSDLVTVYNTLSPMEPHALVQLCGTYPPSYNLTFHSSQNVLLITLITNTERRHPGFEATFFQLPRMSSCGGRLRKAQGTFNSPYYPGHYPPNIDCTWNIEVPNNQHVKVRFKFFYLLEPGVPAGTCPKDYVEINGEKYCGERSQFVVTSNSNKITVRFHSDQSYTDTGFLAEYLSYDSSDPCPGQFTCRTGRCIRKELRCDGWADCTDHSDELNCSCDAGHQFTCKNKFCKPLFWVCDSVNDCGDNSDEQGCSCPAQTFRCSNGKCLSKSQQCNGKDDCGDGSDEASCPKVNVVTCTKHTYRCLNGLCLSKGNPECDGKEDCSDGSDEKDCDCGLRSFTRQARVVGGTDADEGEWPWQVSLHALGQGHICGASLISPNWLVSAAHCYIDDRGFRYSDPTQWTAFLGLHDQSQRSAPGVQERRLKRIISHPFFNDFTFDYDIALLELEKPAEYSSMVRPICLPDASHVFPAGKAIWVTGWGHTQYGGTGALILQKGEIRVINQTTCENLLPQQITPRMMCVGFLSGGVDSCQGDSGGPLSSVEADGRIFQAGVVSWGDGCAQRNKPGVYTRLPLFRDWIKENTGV

[19] = molecular target: Kallikrein 7 (Homo sapiens) (UniProt P49862)
Sequence of Kallikrein 7 (Homo sapiens) (P49862 30-253): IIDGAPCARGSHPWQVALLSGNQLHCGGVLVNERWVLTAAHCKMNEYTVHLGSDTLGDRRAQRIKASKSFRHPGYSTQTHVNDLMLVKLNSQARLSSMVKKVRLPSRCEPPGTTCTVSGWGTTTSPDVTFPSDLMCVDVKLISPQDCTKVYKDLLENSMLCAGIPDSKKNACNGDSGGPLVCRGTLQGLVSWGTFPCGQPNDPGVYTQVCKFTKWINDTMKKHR

[20] = molecular target: Cathepsin G (Homo sapiens) (UniProt P08311)
Sequence of Cathepsin G (Homo sapiens) (P08311 21-243): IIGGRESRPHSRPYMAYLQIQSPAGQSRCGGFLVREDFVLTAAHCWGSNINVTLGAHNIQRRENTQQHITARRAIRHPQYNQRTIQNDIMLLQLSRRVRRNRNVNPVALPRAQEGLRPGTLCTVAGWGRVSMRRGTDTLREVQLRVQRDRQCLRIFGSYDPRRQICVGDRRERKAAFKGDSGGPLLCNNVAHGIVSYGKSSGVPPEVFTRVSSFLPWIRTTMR

Sequence of Corn cystatin-I (P31726 25-135): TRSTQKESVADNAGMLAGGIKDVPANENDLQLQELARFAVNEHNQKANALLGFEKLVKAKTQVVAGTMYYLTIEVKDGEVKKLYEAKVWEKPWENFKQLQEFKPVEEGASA
Sequence of Corn Hageman factor inhibitor (P01088 29-138): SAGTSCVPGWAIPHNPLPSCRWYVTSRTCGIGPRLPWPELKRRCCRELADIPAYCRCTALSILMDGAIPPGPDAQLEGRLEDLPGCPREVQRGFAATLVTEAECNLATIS
Sequence of Trypsin (Bos taurus) (P00760 149-246): as the sequence (P00760 149-246) above
Sequence of MCEI-III (P10296 2-31): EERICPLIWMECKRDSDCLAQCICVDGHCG
Sequence of MTI-2 (P26780 31-93): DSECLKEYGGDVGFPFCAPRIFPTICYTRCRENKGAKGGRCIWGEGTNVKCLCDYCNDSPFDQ
Sequence of Factor XIIa (Homo sapiens) (P00748 whole entry, looked up): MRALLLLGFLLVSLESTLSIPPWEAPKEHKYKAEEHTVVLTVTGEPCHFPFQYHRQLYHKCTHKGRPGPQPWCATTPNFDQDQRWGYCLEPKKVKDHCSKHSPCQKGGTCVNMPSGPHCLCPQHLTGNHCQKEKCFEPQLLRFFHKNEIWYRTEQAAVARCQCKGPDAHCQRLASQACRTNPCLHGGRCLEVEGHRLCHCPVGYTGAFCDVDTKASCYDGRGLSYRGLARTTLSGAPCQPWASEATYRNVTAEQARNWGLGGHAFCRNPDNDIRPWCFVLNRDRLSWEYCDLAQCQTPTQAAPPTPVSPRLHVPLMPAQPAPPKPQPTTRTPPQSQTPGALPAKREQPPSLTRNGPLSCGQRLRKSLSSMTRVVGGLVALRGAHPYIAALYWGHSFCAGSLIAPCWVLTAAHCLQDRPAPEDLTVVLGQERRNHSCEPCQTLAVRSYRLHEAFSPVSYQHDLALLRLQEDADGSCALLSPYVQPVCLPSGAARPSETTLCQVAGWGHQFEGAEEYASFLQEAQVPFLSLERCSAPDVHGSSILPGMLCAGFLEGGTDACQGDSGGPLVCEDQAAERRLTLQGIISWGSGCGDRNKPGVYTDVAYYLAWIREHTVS

Ki [1]: 2 nM | Ki [2]: 23 nM
Substance: Corn Hageman factor inhibitor (from UniProt P01088)

Ki [8]: 0.01 nM
Substance: MTI-2 (from UniProt P26780)

Ki [15]: 25 nM | Ki [16]: 0.17 nM | Ki [17]: 140 nM | Ki [18]: 200 nM | Ki [19]: 740 nM | Ki [20]: 730 nM
Substance: SFTI-I (from UniProt Q4GWU5)

Further lines, the substance ahead of its results:

Substance: Corn cystatin-I (from UniProt P31726)
Ki [3]: 17 nM | Ki [4]: 5.7 nM | Ki [5]: 5.7 nM | Ki [6]: 17 nM

Substance: MCEI-III (from UniProt P10296)
Ki [7]: 4 nM

Substance: Oryzacystatin-I (from UniProt P09229)
Ki [9]: 79 nM | Ki [10]: 0.73 nM | Ki [11]: 1000 nM | Ki [12]: 1000 nM | Ki [13]: 0.73 nM | Ki [14]: 79 nM
